Laboratory results taken from patent publication US20220411483A1 (Chugai, published 2022).
Positions count from the first letter of the chain named.

T1: FcgRIIaR (human, UniProt P12318 34-217)
T1 construct: extracellular domain; also called FcγRIIa R type; FcγRIIa (R type)
T1 sequence (looked up): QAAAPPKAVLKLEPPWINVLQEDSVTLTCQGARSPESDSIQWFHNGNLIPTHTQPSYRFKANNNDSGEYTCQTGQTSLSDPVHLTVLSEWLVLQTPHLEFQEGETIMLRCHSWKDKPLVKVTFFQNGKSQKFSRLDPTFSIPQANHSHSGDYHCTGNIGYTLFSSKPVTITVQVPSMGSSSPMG

T2: FcgRIIb (human, UniProt P31994 43-217)
T2 construct: extracellular domain; also called FcγRIIb
T2 sequence (looked up): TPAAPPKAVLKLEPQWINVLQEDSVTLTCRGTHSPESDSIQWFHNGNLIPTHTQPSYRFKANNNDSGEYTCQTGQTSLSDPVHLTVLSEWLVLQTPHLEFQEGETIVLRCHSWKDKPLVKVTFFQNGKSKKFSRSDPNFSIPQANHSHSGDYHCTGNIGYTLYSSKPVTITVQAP

B1: IL6R-P753/IL6R-L (antibody, human IgG1, kappa)
heavy: QVQLQESGPGLVKPSETLSLTCAVSGHSISHDHAWSWVRQPPGEGLEWIGFISYSGITNYNPSLQGRVTISRDNSKNTLYLQMNSLRAEDTAVYYCARSLARTTAMDYWGEGTLVTVSSASTKGPSVFPLAPSSKSTSGGTAALGCLVKDYFPEPVTVSWNSGALTSGVHTFPAVLQSSGLYSLSSVVTVPSSSLGTQTYICNVNHKPSNTKVDKKVEPKSCDKTHTCPPCPAPELFGQDSVMLFPPKPKDTLMISRTPEVTCVVVDVSPEDPEVKFNWYVDGVEVHNAKTKPREEQENSTYRVVSVLTVLHQDWLNGKEYKCEVHNKALPAPIEKTISKAKGQPREPQVYTLPPSRDELTKNQVSLTCLVKGFYPSDIAVEWESNGQPENNYKTTPPVLDSDGSFFLYSKLTVDKSRWQQGNVFSCSVMHEALHNHYTQKSLSLSP
light: not shown
B2: IL6R-P762/IL6R-L (antibody, human IgG1, kappa)
heavy: QVQLQESGPGLVKPSETLSLTCAVSGHSISHDHAWSWVRQPPGEGLEWIGFISYSGITNYNPSLQGRVTISRDNSKNTLYLQMNSLRAEDTAVYYCARSLARTTAMDYWGEGTLVTVSSASTKGPSVFPLAPSSKSTSGGTAALGCLVKDYFPEPVTVSWNSGALTSGVHTFPAVLQSSGLYSLSSVVTVPSSSLGTQTYICNVNHKPSNTKVDKKVEPKSCDKTHTCPPCPAPELLGGDSVFLFPPKPKDTLMISRTPEVTCVVVDVSHEDGEVKFNWYVDGVEVHNAKTKPREEQYNSTYRVVSVLTVLHQDWLNGKEYKCKVSNKGLPSSIEKTISKAKGQPREPQVYTLPPSRDELTKNQVSLTCLVKGFYPSDIAVEWESNGQPENNYKTTPPVLDSDGSFFLYSKLTVDKSRWQQGNVFSCSVMHEALHNHYTQKSLSLSP
light: not shown
B3: IL6R-P775/IL6R-L (antibody, human IgG1, kappa)
heavy: B2 heavy with K324A, G329A, S332A, S333P
light: not shown
B4: IL6R-P763/IL6R-L (antibody, human IgG1, kappa)
heavy: B2 heavy with S269A, H270E, G329A, S332A, S333P
light: not shown
B5: IL6R-P773/IL6R-L (antibody, human IgG1, kappa)
heavy: B2 heavy with S269A, H270E, K324A, G329A, S332A, S333P
light: not shown
B6: IL6R-P764/IL6R-L (antibody, human IgG1, kappa)
heavy: B2 heavy with V266I, H270E, G329A, S332A, S333P
light: not shown
B7: IL6R-P774/IL6R-L (antibody, human IgG1, kappa)
heavy: B2 heavy with S269A, H270E, K324E, G329A, S332A, S333P
light: not shown
B8: IL6R-P765/IL6R-L (antibody, human IgG1, kappa)
heavy: B2 heavy with V266I, S269A, G329A, S332A, S333P
light: not shown
B9: IL6R-P776/IL6R-L (antibody, human IgG1, kappa)
heavy: B2 heavy with K324E, G329A, S332A, S333P
light: not shown
B10: IL6R-P778/IL6R-L (antibody, human IgG1, kappa)
heavy: B2 heavy with E235D, V266I, S269A, H270E, K324E, G329A, S332A, S333P
light: not shown
notes: also called IL6B-P778/IL6R-L
B11: IL6R-P780/IL6R-L (antibody, human IgG1, kappa)
heavy: B2 heavy with V266I, S269A, H270E, K324E, G329A, S332A, S333P
light: not shown
B12: IL6R-P754/IL6R-L (antibody, human IgG1, kappa)
heavy: B1 heavy with F237L, E324A, A332H
light: not shown
B13: IL6R-P768/IL6R-L (antibody, human IgG1, kappa)
heavy: B2 heavy with V266I, S269A
light: not shown
B14: IL6R-P756/IL6R-L (antibody, human IgG1, kappa)
heavy: B2 heavy with E235D, V266I, S269A, H270E
light: not shown
B15: IL6R-P777/IL6R-L (antibody, human IgG1, kappa)
heavy: B2 heavy with E235D, V266I, S269A, H270E, K324A, G329A, S332A, S333P
light: not shown
B16: IL6R-P757/IL6R-L (antibody, human IgG1, kappa)
heavy: B2 heavy with V266I, S269A, H270E
light: not shown
B17: IL6R-P771/IL6R-L (antibody, human IgG1, kappa)
heavy: B2 heavy with V266I, K324A, G329A, S332A, S333P
light: not shown
B18: IL6R-P770/IL6R-L (antibody, human IgG1, kappa)
heavy: B2 heavy with V266I
light: not shown
B19: IL6R-P779/IL6R-L (antibody, human IgG1, kappa)
heavy: B2 heavy with V266I, S269A, H270E, K324A, G329A, S332A, S333P
light: not shown
B20: IL6R-P760/IL6R-L (antibody, human IgG1, kappa)
heavy: B2 heavy with G239D, H270E
light: not shown
B21: IL6R-P769/IL6R-L (antibody, human IgG1, kappa)
heavy: B2 heavy with V266I, G329A, S332A, S333P
light: not shown
B22: IL6R-P772/IL6R-L (antibody, human IgG1, kappa)
heavy: B2 heavy with V266I, K324E, G329A, S332A, S333P
light: not shown
B23: IL6R-P767/IL6R-L (antibody, human IgG1, kappa)
heavy: B2 heavy with V266I, H270E
light: not shown
B24: IL6R-P758/IL6R-L (antibody, human IgG1, kappa)
heavy: B2 heavy with G239D, H270D
light: not shown
B25: IL6R-P761/IL6R-L (antibody, human IgG1, kappa)
heavy: B2 heavy with E235D, G239D, H270E
light: not shown
B26: IL6R-P781/IL6R-L (antibody, human IgG1, kappa)
heavy: B2 heavy with G273P, S300A
light: not shown
B27: IL6R-P755/IL6R-L (antibody, human IgG1, kappa)
heavy: B1 heavy with F237L, A332H
light: not shown
B28: IL6R-P759/IL6R-L (antibody, human IgG1, kappa)
heavy: B2 heavy with E235D, G239D, H270D
light: not shown
B29: IL6R-P766/IL6R-L (antibody, human IgG1, kappa)
heavy: B2 heavy with S269A, H270E
light: not shown

target: T1, FcgRIIaR; experiment: SPR, amount bound per captured antibody

| Relative FcgRIIaR-binding Activity | Binder |
| --- | --- |
| 10.4 IL6R-G1d/IL6R-L=100 | B1 |
| 75.8 IL6R-G1d/IL6R-L=100 | B2 |
| 64.2 IL6R-G1d/IL6R-L=100 | B3 |
| 101 IL6R-G1d/IL6R-L=100 | B4 |
| 87.3 IL6R-G1d/IL6R-L=100 | B5 |
| 89.5 IL6R-G1d/IL6R-L=100 | B6 |
| 98.8 IL6R-G1d/IL6R-L=100 | B7 |
| 93.2 IL6R-G1d/IL6R-L=100 | B8 |
| 77.4 IL6R-G1d/IL6R-L=100 | B9 |
| 105 IL6R-G1d/IL6R-L=100 | B10 |
| 101 IL6R-G1d/IL6R-L=100 | B11 |
| 5.6 IL6R-G1d/IL6R-L=100 | B12 |
| 80.9 IL6R-G1d/IL6R-L=100 | B13 |
| 92.4 IL6R-G1d/IL6R-L=100 | B14 |
| 97.5 IL6R-G1d/IL6R-L=100 | B15 |
| 89.2 IL6R-G1d/IL6R-L=100 | B16 |
| 75.8 IL6R-G1d/IL6R-L=100 | B17 |
| 78.2 IL6R-G1d/IL6R-L=100 | B18 |
| 96 IL6R-G1d/IL6R-L=100 | B19 |
| 97.1 IL6R-G1d/IL6R-L=100 | B20 |
| 86.7 IL6R-G1d/IL6R-L=100 | B21 |
| 84.3 IL6R-G1d/IL6R-L=100 | B22 |
| 84.2 IL6R-G1d/IL6R-L=100 | B23 |
| 90.6 IL6R-G1d/IL6R-L=100 | B24 |
| 103 IL6R-G1d/IL6R-L=100 | B25 |
| 7.8 IL6R-G1d/IL6R-L=100 | B26 |
| 9.8 IL6R-G1d/IL6R-L=100 | B27 |
| 96.5 IL6R-G1d/IL6R-L=100 | B28 |
| 88.1 IL6R-G1d/IL6R-L=100 | B29 |

target: T2, FcgRIIb; experiment: SPR, amount bound per captured antibody

| Relative FcgRIIb-binding Activity | Binder |
| --- | --- |
| 103 IL6R-G1d/IL6R-L=100 | B1 |
| 252 IL6R-G1d/IL6R-L=100 | B2 |
| 180 IL6R-G1d/IL6R-L=100 | B3 |
| 332 IL6R-G1d/IL6R-L=100 | B4 |
| 192 IL6R-G1d/IL6R-L=100 | B5 |
| 329 IL6R-G1d/IL6R-L=100 | B6 |
| 200 IL6R-G1d/IL6R-L=100 | B7 |
| 340 IL6R-G1d/IL6R-L=100 | B8 |
| 190 IL6R-G1d/IL6R-L=100 | B9 |
| 198 IL6R-G1d/IL6R-L=100 | B10 |
| 200 IL6R-G1d/IL6R-L=100 | B11 |
| 85.8 IL6R-G1d/IL6R-L=100 | B12 |
| 305 IL6R-G1d/IL6R-L=100 | B13 |
| 323 IL6R-G1d/IL6R-L=100 | B14 |
| 198 IL6R-G1d/IL6R-L=100 | B15 |
| 327 IL6R-G1d/IL6R-L=100 | B16 |
| 195 IL6R-G1d/IL6R-L=100 | B17 |
| 188 IL6R-G1d/IL6R-L=100 | B18 |
| 201 IL6R-G1d/IL6R-L=100 | B19 |
| 304 IL6R-G1d/IL6R-L=100 | B20 |
| 196 IL6R-G1d/IL6R-L=100 | B21 |
| 196 IL6R-G1d/IL6R-L=100 | B22 |
| 318 IL6R-G1d/IL6R-L=100 | B23 |
| 285 IL6R-G1d/IL6R-L=100 | B24 |
| 320 IL6R-G1d/IL6R-L=100 | B25 |
| 51.1 IL6R-G1d/IL6R-L=100 | B26 |
| 130 IL6R-G1d/IL6R-L=100 | B27 |
| 305 IL6R-G1d/IL6R-L=100 | B28 |
| 286 IL6R-G1d/IL6R-L=100 | B29 |

target: T3, human complement C1q (human, UniProt P02745 23-245; P02746 28-253; P02747 29-245); experiment: SPR, C1q bound per antibody captured on Protein L
T3 construct: Bought (PROSPEC or Calbiochem); also called human C1q
T3 sequence (P02745 23-245 limits assumed, chain 1 of 3): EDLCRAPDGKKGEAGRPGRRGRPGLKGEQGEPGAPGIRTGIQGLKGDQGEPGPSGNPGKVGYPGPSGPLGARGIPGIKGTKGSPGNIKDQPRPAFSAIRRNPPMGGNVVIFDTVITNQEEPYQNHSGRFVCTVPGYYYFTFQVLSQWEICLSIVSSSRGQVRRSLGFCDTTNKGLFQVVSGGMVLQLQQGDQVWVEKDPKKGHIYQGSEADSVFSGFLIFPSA
T3 sequence (P02746 28-253 limits assumed, chain 2 of 3): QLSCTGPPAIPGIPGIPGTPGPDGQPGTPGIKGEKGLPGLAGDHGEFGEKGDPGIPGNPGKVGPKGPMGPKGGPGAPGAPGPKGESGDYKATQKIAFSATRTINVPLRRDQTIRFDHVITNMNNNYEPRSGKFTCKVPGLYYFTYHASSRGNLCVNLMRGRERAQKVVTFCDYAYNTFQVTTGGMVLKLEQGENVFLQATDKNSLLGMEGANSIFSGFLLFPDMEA
T3 sequence (P02747 29-245 limits assumed, chain 3 of 3): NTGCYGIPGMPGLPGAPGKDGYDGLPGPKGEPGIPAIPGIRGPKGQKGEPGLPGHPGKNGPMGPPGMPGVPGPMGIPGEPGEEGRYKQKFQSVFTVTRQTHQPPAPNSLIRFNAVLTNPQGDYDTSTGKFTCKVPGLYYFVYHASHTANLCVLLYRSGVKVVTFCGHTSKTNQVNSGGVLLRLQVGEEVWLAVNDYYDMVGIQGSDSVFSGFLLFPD
Procedure: The interaction between an antibody and human C1q was analyzed using Biacore T200 (GE Healthcare). HBS-EP+ (GE Healthcare) was used as the running buffer, and the measurement temperature was set at 25° C. Chips produced by immobilizing Protein L (ACTIGEN or BioVision) onto Series S sensor Chip CM4 (GE Healthcare) by amine coupling were used.
The antibodies of interest were captured onto these sensor chips, and allowed to interact with human complement C1q (PROSPEC or Calbiochem) diluted in the running buffer. The amount of antibody binding was determined, and comparisons were made among the antibodies. However, since the amount of C1q bound depends on the amount of captured antibodies, corrected values obtained by dividing the amount of C1q bound by the amount of each antibody captured were compared. Furthermore, by reaction with 10 mM glycine-HCl, pH 1.5, the antibodies captured onto the sensor chips were washed, and the sensor chips were recycled and reused.

| Amount of C1q-binding when that for G1d is Defined as 100 | Binder |
| --- | --- |
| 14 G1d=100 | B1 |
| 14.6 G1d=100 | B2 |
| 21.8 G1d=100 | B3 |
| 41.7 G1d=100 | B4 |
| 1.7 G1d=100 | B5 |
| 23.1 G1d=100 | B6 |
| 15.2 G1d=100 | B7 |
| 46.6 G1d=100 | B8 |
| 0.7 G1d=100 | B9 |
| 23.9 G1d=100 | B10 |
| 12.9 G1d=100 | B11 |
| 1.8 G1d=100 | B12 |
| 14 G1d=100 | B13 |
| 15 G1d=100 | B14 |
| 12.4 G1d=100 | B15 |
| 22.6 G1d=100 | B16 |
| 14.3 G1d=100 | B17 |
| 1.5 G1d=100 | B18 |
| 0.8 G1d=100 | B19 |
| 21.7 G1d=100 | B20 |
| 31.3 G1d=100 | B21 |
| 21.6 G1d=100 | B22 |
| 1.7 G1d=100 | B23 |
| 2 G1d=100 | B24 |
| 2.1 G1d=100 | B25 |
| 24 G1d=100 | B26 |
| 14.4 G1d=100 | B27 |
| 14.5 G1d=100 | B28 |
| 21.8 G1d=100 | B29 |
